B1: GPC3-A variable heavy variant H1.1 (D52E) with L1 (antibody, V domains shown)
VH: QVQLVQSGAEVKKPGASVKVSCKASGYTFTDYEMHWVRQAPGQGLEWMGALEPKTGDTAYSQKFQGRVTMTADKSISTAYMELSRLRSDDTAVYYCTRFYSYTYWGQGTLVTVSS
VL: DVVMTQSPLSLPVTLGQPASISCRSSQSLVHSNGNTYLHWYQQRPGQSPRLLIYKVSNRFSGVPDRFSGSGSGTDFTLKISRVEAEDVGVYFCSQNTHVPPTFGSGTKLEIK
notes: pairing with L1 follows from the library being made on humanized GPC3-A and from pair c) of claim 53; also called [GPC3]H1.1_L1
B2: XENP 23064 H1_L1.1 (antibody, human IgG1, kappa, V domains shown)
VH: QVQLVQSGAEVKKPGASVKVSCKASGYTFTDYEMHWVRQAPGQGLEWMGALDPKTGDTAYSQKFQGRVTMTADKSISTAYMELSRLRSDDTAVYYCTRFYSYTYWGQGTLVTVSS
VL: DVVMTQSPLSLPVTLGQPASISCRSSQSLVHSQGNTYLHWYQQRPGQSPRLLIYKVSNRFSGVPDRFSGSGSGTDFTLKISRVEAEDVGVYFCSQNTHVPPTFGSGTKLEIKR
notes: VH WT, VL mutation (Kabat) N28Q; also called [GPC3]H1_L1.1; VL N28Q; copies: 2 + 2
B3: humanized GPC3-A H1_L1 (antibody, V domains shown)
VH: QVQLVQSGAEVKKPGASVKVSCKASGYTFTDYEMHWVRQAPGQGLEWMGALDPKTGDTAYSQKFQGRVTMTADKSISTAYMELSRLRSDDTAVYYCTRFYSYTYWGQGTLVTVSS
VL: DVVMTQSPLSLPVTLGQPASISCRSSQSLVHSNGNTYLHWYQQRPGQSPRLLIYKVSNRFSGVPDRFSGSGSGTDFTLKISRVEAEDVGVYFCSQNTHVPPTFGSGTKLEIK
notes: also called [GPC3]H1_L1
B4: XENP 23065 H1_L1.2 (antibody, human IgG1, kappa, V domains shown)
VH: QVQLVQSGAEVKKPGASVKVSCKASGYTFTDYEMHWVRQAPGQGLEWMGALDPKTGDTAYSQKFQGRVTMTADKSISTAYMELSRLRSDDTAVYYCTRFYSYTYWGQGTLVTVSS
VL: DVVMTQSPLSLPVTLGQPASISCRSSQSLVHSYGNTYLHWYQQRPGQSPRLLIYKVSNRFSGVPDRFSGSGSGTDFTLKISRVEAEDVGVYFCSQNTHVPPTFGSGTKLEIKR
notes: VH WT, VL mutation (Kabat) N28Y; also called [GPC3]H1_L1.2; VL N28Y; copies: 2 + 2
B5: XENP 23062 H1.3_L1 (antibody, human IgG1, kappa, V domains shown)
VH: QVQLVQSGAEVKKPGASVKVSCKASGYTFTDYEMHWVRQAPGQGLEWMGALQPKTGDTAYSQKFQGRVTMTADKSISTAYMELSRLRSDDTAVYYCTRFYSYTYWGQGTLVTVSS
VL: DVVMTQSPLSLPVTLGQPASISCRSSQSLVHSNGNTYLHWYQQRPGQSPRLLIYKVSNRFSGVPDRFSGSGSGTDFTLKISRVEAEDVGVYFCSQNTHVPPTFGSGTKLEIKR
notes: VH mutation (Kabat) D52Q, VL WT; also called [GPC3]H1.3_L1; VH D52Q; copies: 2 + 2
B6: XENP 23066 H1_L1.3 (antibody, human IgG1, kappa, V domains shown)
VH: QVQLVQSGAEVKKPGASVKVSCKASGYTFTDYEMHWVRQAPGQGLEWMGALDPKTGDTAYSQKFQGRVTMTADKSISTAYMELSRLRSDDTAVYYCTRFYSYTYWGQGTLVTVSS
VL: DVVMTQSPLSLPVTLGQPASISCRSSQSLVHSSGNTYLHWYQQRPGQSPRLLIYKVSNRFSGVPDRFSGSGSGTDFTLKISRVEAEDVGVYFCSQNTHVPPTFGSGTKLEIKR
notes: VH WT, VL mutation (Kabat) N28S; also called [GPC3]H1_L1.3; VL N28S; copies: 2 + 2
B7: XENP 23061 H1.2_L1 (antibody, human IgG1, kappa, V domains shown)
VH: QVQLVQSGAEVKKPGASVKVSCKASGYTFTDYEMHWVRQAPGQGLEWMGALNPKTGDTAYSQKFQGRVTMTADKSISTAYMELSRLRSDDTAVYYCTRFYSYTYWGQGTLVTVSS
VL: DVVMTQSPLSLPVTLGQPASISCRSSQSLVHSNGNTYLHWYQQRPGQSPRLLIYKVSNRFSGVPDRFSGSGSGTDFTLKISRVEAEDVGVYFCSQNTHVPPTFGSGTKLEIKR
notes: VH mutation (Kabat) D52N, VL WT; also called [GPC3]H1.2_L1; VH D52N; copies: 2 + 2
B8: XENP 23063 H1.4_L1 (antibody, human IgG1, kappa, V domains shown)
VH: QVQLVQSGAEVKKPGASVKVSCKASGYTFTDYEMHWVRQAPGQGLEWMGALSPKTGDTAYSQKFQGRVTMTADKSISTAYMELSRLRSDDTAVYYCTRFYSYTYWGQGTLVTVSS
VL: DVVMTQSPLSLPVTLGQPASISCRSSQSLVHSNGNTYLHWYQQRPGQSPRLLIYKVSNRFSGVPDRFSGSGSGTDFTLKISRVEAEDVGVYFCSQNTHVPPTFGSGTKLEIKR
notes: VH mutation (Kabat) D52S, VL WT; also called [GPC3]H1.4_L1; VH D52S; copies: 2 + 2

Experimental findings from patent US20240034815A1 (Xencor, published 2024) are described below.

T1 sequence (P51654 25-559 limits assumed): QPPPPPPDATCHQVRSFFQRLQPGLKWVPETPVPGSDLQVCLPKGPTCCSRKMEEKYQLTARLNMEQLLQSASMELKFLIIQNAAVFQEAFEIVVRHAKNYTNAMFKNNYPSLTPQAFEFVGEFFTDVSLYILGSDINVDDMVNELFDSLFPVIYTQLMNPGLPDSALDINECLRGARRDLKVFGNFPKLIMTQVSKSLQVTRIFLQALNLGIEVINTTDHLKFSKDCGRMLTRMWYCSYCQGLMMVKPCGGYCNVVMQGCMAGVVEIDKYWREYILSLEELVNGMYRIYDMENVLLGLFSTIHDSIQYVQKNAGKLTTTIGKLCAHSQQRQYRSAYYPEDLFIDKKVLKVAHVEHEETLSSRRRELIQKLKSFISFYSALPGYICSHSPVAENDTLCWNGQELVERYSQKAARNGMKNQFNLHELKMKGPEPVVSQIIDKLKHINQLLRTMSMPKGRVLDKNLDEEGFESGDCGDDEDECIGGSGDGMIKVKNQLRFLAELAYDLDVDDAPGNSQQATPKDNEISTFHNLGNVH

The assay addresses T1, His-tagged human GPC3 (human, UniProt P51654 25-559, limits assumed).
T1 construct: Captured on HIS1K sensors in the Octet assay; also called human GPC3 antigen; Glypican 3; not shown: His tag
The assay can be described thus: binding assay not named for this figure; human GPC3 per legend paragraph 61.
B1 came in with a Kd of 3.92 nM. For B2 the value was 28.2 nM. Under B3 stands 3.17 nM.

Take B4: the Kd was 7.43 nM. For B5 the value was 3.13 nM; for B6, 12.7 nM; for B7, 5.81 nM. For B8 the value was 3.62 nM.

In general, Kd refers to the concentration at which binding is half-saturated. Lower therefore signals tighter binding.
